Data: patent US20150175708A1 (Eli Lilly, published 2015)

Key:
[1] = target: T1, MET on the cell surface of human tumor cell lines (human, UniProt P08581 25-1390); experiment: cell-based or functional assay
[2] = target: T1, MET on the cell surface of human tumor …; experiment: cell-based or functional assay; remark: listed apart in the source
[3] = target: EGFR on the cell surface of human tumor cell lines (human, UniProt P00533 25-1210); experiment: cell-based or functional assay
[4] = target: extracellular domain of human MET (MET-ECD) (human, UniProt P08581 25-932); experiment: SPR (Biacore), antibody captured on protein A chip, MET-ECD in solution, 25 C, 1:1 model
[5] = target: T2, human EGFR extracellular domain (EGFR-ECD) (human, UniProt P00533 25-645); experiment: SPR (Biacore), antibody captured on protein A chip, EGFR-ECD in solution, 25 C, 1:1 model
T2 construct: extracellular domain; also called human EGFR-ECD

extracellular domain of human MET (MET-ECD), sequence (P08581 25-932): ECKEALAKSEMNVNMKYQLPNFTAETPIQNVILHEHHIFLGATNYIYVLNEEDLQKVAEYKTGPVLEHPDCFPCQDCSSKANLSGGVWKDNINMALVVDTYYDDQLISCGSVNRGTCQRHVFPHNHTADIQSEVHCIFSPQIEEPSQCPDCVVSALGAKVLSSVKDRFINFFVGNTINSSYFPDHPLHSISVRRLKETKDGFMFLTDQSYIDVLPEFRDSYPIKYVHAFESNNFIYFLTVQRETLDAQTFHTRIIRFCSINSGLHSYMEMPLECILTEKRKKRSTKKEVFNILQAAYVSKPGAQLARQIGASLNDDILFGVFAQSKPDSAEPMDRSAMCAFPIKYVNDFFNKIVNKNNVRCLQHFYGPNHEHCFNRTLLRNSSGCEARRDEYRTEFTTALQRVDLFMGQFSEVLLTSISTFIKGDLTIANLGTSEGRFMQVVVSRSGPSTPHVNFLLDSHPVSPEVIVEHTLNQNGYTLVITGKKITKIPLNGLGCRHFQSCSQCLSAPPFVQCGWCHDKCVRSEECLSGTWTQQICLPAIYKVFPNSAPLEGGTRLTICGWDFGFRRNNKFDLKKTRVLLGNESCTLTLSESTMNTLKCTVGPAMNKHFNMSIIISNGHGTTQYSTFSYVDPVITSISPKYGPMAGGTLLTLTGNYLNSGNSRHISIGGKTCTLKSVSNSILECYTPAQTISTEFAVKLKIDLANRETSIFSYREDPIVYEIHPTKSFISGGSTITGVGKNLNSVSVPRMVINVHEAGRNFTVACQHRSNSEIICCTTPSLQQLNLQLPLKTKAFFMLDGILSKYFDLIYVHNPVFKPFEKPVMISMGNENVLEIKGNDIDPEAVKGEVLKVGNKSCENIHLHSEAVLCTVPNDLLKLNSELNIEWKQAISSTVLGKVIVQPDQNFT
T1 sequence (P08581 25-1390): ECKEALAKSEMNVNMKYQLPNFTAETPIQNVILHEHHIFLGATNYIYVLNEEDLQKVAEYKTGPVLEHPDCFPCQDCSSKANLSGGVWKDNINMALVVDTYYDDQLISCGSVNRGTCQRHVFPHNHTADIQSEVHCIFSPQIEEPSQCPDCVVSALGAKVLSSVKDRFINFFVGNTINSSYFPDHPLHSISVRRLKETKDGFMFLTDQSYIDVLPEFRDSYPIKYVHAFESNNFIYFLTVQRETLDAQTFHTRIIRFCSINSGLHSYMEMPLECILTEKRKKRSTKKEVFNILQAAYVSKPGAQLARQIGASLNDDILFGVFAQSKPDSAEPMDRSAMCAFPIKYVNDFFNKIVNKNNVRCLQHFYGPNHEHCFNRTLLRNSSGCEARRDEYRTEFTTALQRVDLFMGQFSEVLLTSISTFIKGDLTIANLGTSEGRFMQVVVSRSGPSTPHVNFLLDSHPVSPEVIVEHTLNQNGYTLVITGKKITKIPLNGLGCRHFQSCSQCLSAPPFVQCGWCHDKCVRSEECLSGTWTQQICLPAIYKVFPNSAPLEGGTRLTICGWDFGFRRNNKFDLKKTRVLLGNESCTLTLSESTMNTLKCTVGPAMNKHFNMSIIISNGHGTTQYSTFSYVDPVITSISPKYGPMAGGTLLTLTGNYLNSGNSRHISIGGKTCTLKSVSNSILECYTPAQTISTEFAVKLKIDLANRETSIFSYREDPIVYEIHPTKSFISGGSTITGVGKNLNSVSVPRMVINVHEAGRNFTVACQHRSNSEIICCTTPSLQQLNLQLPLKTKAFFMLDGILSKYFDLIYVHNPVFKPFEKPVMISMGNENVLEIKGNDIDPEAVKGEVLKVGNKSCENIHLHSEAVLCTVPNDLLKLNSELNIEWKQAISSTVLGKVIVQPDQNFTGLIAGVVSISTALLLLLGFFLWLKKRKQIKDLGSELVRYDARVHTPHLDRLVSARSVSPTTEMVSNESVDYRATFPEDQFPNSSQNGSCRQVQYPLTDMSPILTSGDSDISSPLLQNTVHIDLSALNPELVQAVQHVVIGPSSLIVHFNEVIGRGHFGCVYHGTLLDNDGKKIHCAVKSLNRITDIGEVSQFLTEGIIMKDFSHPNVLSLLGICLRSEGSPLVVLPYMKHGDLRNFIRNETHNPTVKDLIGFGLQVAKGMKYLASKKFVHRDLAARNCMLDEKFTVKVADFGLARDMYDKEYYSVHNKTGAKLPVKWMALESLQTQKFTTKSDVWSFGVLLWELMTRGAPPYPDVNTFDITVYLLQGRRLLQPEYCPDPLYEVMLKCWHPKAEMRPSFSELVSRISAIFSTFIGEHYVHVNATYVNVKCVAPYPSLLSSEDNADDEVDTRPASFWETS

| Binder | Kd [4] [nM] | koff [4] [s⁻¹] | kon [4] [M⁻¹ s⁻¹] | Kd [5] [nM] | koff [5] [s⁻¹] | kon [5] [M⁻¹ s⁻¹] | average % of cell viability (CellTiter-Glo), H596 cells + 50 ng/mL HGF, antibody 0.4 nM [2] [%] | average % of cell viability (CellTiter-Glo), H596 cells + 50 ng/mL HGF, antibody 1.2 nM [2] [%] | average % of cell viability (CellTiter-Glo), H596 cells + 50 ng/mL HGF, antibody 3.7 nM [2] [%] | average % of cell viability (CellTiter-Glo), H596 cells + 50 ng/mL HGF, antibody 11.1 nM [2] [%] | average % of cell viability (CellTiter-Glo), H596 cells + 50 ng/mL HGF, antibody 33.3 nM [2] [%] | average % of cell viability (CellTiter-Glo), H596 cells + 50 ng/mL HGF, antibody 100 nM [2] [%] | average % of cell viability, H1666 cells, antibody 0.02 nM [3] [%] | average % of cell viability, H1666 cells, antibody 0.05 nM [3] [%] | average % of cell viability, H1666 cells, antibody 0.14 nM [3] [%] | average % of cell viability, H1666 cells, antibody 0.41 nM [3] [%] | average % of cell viability, H1666 cells, antibody 1.23 nM [3] [%] | average % of cell viability, H1666 cells, antibody 3.70 nM [3] [%] | average % of cell viability, H1666 cells, antibody 11.11 nM [3] [%] | average % of cell viability, H1666 cells, antibody 33.33 nM [3] [%] | other results |
| --- | --- | --- | --- | --- | --- | --- | --- | --- | --- | --- | --- | --- | --- | --- | --- | --- | --- | --- | --- | --- | --- |
| anti-MET/EGFR multifunctional antibody NH-YK (bispecific antibody, human IgG4 S228P, kappa, F234A L235A, Tetravalent: anti-MET C8-H241 human IgG4 with an anti-EGFR YK scFv fused by a glycine-rich linker to the N-terminus of each heavy chain) heavy: not shown light: DIQMTQSPSSLSASVGDRVTITCSVSSSVSSIYLHWYQQKPGKAPKLLIYSTSNLASGVPSRFSGSGSGTDFTLTISSLQPEDFATYYCQVYSGYPLTFGGGTKVEIKRTVAAPSVFIFPPSDEQLKSGTASVVCLLNNFYPREAKVQWKVDNALQSGNSQESVTEQDSKDSTYSLSSTLTLSKADYEKHKVYACEVTHQGLSSPVTKSFNRGEC | 0.84 | 6.3e-05 | 75000 | 0.19 | 0.00075 | 4e+06 | 113 | 108 | 104 | 107 | 101 | 102 | 106 | 105 | 87.2 | 65.5 | 45.6 | 36.9 | 31.9 | 27.9 | % cell surface MET remaining, H441 cells, 50 nM antibody overnight, FACS [1]: 58%; AVG of MFI (staining of cell surface MET), H441 cells, 50 nM antibody overnight, FACS [1]: 44.9 MFI; average % of cell viability, H1666 cells, antibody 100 nM [3]: 26.4% |
| anti-MET/EGFR multifunctional antibody H9 (bispecific antibody, human IgG4 S228P, kappa, F234A L235A, Tetravalent: anti-MET C8-H241 human IgG4 with an anti-EGFR H9 scFv fused to the heavy chain C-terminus) heavy: not shown light: DIQMTQSPSSLSASVGDRVTITCSVSSSVSSIYLHWYQQKPGKAPKLLIYSTSNLASGVPSRFSGSGSGTDFTLTISSLQPEDFATYYCQVYSGYPLTFGGGTKVEIKRTVAAPSVFIFPPSDEQLKSGTASVVCLLNNFYPREAKVQWKVDNALQSGNSQESVTEQDSKDSTYSLSSTLTLSKADYEKHKVYACEVTHQGLSSPVTKSFNRGEC | 1.15 | 0.000109 | 95000 | 0.32 | 0.00018 | 570000 | – | – | – | – | – | – | – | – | – | – | – | – | – | – | – |

Stronger by Kd [4], values ahead:

| Kd [4] [nM] | koff [4] [s⁻¹] | kon [4] [M⁻¹ s⁻¹] | Kd [5] [nM] | koff [5] [s⁻¹] | kon [5] [M⁻¹ s⁻¹] | Binder | average % of cell viability (CellTiter-Glo), H596 cells + 50 ng/mL HGF, antibody 0.4 nM [2] [%] | average % of cell viability (CellTiter-Glo), H596 cells + 50 ng/mL HGF, antibody 1.2 nM [2] [%] | average % of cell viability (CellTiter-Glo), H596 cells + 50 ng/mL HGF, antibody 3.7 nM [2] [%] | average % of cell viability (CellTiter-Glo), H596 cells + 50 ng/mL HGF, antibody 11.1 nM [2] [%] | average % of cell viability (CellTiter-Glo), H596 cells + 50 ng/mL HGF, antibody 33.3 nM [2] [%] | average % of cell viability (CellTiter-Glo), H596 cells + 50 ng/mL HGF, antibody 100 nM [2] [%] | average % of cell viability, H1666 cells, antibody 0.02 nM [3] [%] | average % of cell viability, H1666 cells, antibody 0.05 nM [3] [%] | average % of cell viability, H1666 cells, antibody 0.14 nM [3] [%] | average % of cell viability, H1666 cells, antibody 0.41 nM [3] [%] | average % of cell viability, H1666 cells, antibody 1.23 nM [3] [%] | average % of cell viability, H1666 cells, antibody 3.70 nM [3] [%] | average % of cell viability, H1666 cells, antibody 11.11 nM [3] [%] | average % of cell viability, H1666 cells, antibody 33.33 nM [3] [%] | other results |
| --- | --- | --- | --- | --- | --- | --- | --- | --- | --- | --- | --- | --- | --- | --- | --- | --- | --- | --- | --- | --- | --- |
| 0.75 | 7.9e-05 | 105000 | 0.1 | 0.00018 | 1.8e+06 | anti-MET/EGFR multifunctional antibody NH-H9 (bispecific antibody, human IgG4 S228P, kappa, F234A L235A, Tetravalent: anti-MET C8-H241 human IgG4 with an anti-EGFR H9 scFv fused to the N-terminus of each heavy chain) heavy: not shown light: DIQMTQSPSSLSASVGDRVTITCSVSSSVSSIYLHWYQQKPGKAPKLLIYSTSNLASGVPSRFSGSGSGTDFTLTISSLQPEDFATYYCQVYSGYPLTFGGGTKVEIKRTVAAPSVFIFPPSDEQLKSGTASVVCLLNNFYPREAKVQWKVDNALQSGNSQESVTEQDSKDSTYSLSSTLTLSKADYEKHKVYACEVTHQGLSSPVTKSFNRGEC | 107 | 102 | 103 | 105 | 102 | 102 | 105 | 100 | 77.8 | 52.9 | 38.6 | 31.6 | 26.6 | 24.1 | average % of cell viability, H1666 cells, antibody 100 nM [3]: 23.1% |
| 0.26 | 3.3e-05 | 126000 | 0.44 | 0.00057 | 1.3e+06 | anti-MET/EGFR multifunctional antibody YK (bispecific antibody, human IgG4 S228P, kappa, F234A L235A, Tetravalent: anti-MET C8-H241 human IgG4 with an anti-EGFR YK scFv fused to the heavy chain C-terminus) heavy: not shown light: DIQMTQSPSSLSASVGDRVTITCSVSSSVSSIYLHWYQQKPGKAPKLLIYSTSNLASGVPSRFSGSGSGTDFTLTISSLQPEDFATYYCQVYSGYPLTFGGGTKVEIKRTVAAPSVFIFPPSDEQLKSGTASVVCLLNNFYPREAKVQWKVDNALQSGNSQESVTEQDSKDSTYSLSSTLTLSKADYEKHKVYACEVTHQGLSSPVTKSFNRGEC | – | – | – | – | – | – | – | – | – | – | – | – | – | – | – |
